For orientation: Kd means a measure of binding affinity in units of concentration. Read a high Kd as a looser complex.

Assay in all cases: EMSA
What all share (settings): tags: MBP fusion
(In general: A gel shift assay detects complexes by their altered migration in electrophoresis.)

The target in one data set is ZFP SBS#1038 (synthetic). An outline of the steps:
(§1)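 Purified ZFP was titrated against labeled double-stranded target (1 nM or lower, at least 10-fold below expected Kd) carrying the natural binding site with flanks. Binding buffer was 10 mM Tris pH 7.5, 100 mM KCl, 1 mM MgCl2, 0.1 mM ZnCl2, 5 mM DTT, 10% glycerol, 0.02% BSA, with equilibration for at least 45 min. Bound and free target were separated on a 10% polyacrylamide gel.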

The target of a further data set is ZFP SBS#1037 (synthetic). An outline of the steps:
as §1

The target of a further data set is T1, ZFP SBS#1041 (synthetic).
T1 chain: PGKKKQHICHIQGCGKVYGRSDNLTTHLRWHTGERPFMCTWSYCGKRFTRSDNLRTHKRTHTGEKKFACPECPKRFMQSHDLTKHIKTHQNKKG
An outline of the steps: as §1

The next data set has as its target T2, ZFP SBS#919 (synthetic).
T2 chain: T1 chain with H80G, T83R, K84T
An outline of the steps:
as §1

The next data set addresses T3, ZFP SBS#941 (synthetic).
T3 chain: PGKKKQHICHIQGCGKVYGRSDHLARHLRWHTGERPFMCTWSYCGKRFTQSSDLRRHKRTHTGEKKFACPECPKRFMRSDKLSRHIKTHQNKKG
In outline:
as §1

The target of another data set is T4, ZFP SBS#1039 (synthetic).
T4 chain: T3 chain with A25S, Q50T, S52G, D53E, R55V, K81H, S83T
An outline of the steps: as §1

The next data set addresses T5, ZFP SBS#993 (synthetic, UniProt P08047).
T5 chain: T3 chain with Q50T, S52G, D53E, R55V, K81H
An outline of the steps:
as §1

In the next data set the target is ZFP SBS#1040 (synthetic, UniProt P08047). An outline of the steps: as §1
A further data set has as its target T6, ZFP SBS#943 (synthetic).
T6 chain: T3 chain with Q50T, S52G, D53E, R55V
An outline of the steps: as §1

The next data set deals with ZFP SBS#942 (synthetic, UniProt P08047). An outline of the steps: as §1
Another data set has as its target ZFP SBS#944 (synthetic, UniProt P08047). An outline of the steps:
as §1

The target of another data set is T7, ZFP SBS#1026 (synthetic).
T7 chain: T3 chain with R20M, D22H, A25K, R26E, R55S, K81A, S83A
An outline of the steps: as §1

A further data set deals with ZFP SBS#964 (synthetic). In outline:
as §1

A further data set has as its target T8, ZFP SBS#1027 (synthetic, UniProt P08047).
T8 chain: T3 chain with H23A, Q50R, S52D, D53E, R55Q, K81E, S83Q
In outline:
as §1

For the next data set, the target named is ZFP SBS#258 (synthetic). An outline of the steps:
as §1

For the next data set, the target named is T9, ZFP SBS#1044 (synthetic).
T9 chain: T3 chain with H23N, S51R, S52A, D53H, R55E, K81N, S83R, R84E
In outline: as §1

The target in the next data set is ZFP SBS#1043 (synthetic). An outline of the steps:
as §1

The target in a further data set is T10, ZFP SBS#1051 (synthetic).
T10 chain: T3 chain with H23N, A25T, R55Q, K81N, S83V
An outline of the steps: as §1

The target of another data set is ZFP SBS#1032 (synthetic). In outline: as §1
A further data set addresses ZFP SBS#987 (synthetic). In outline: as §1
The target in another data set is ZFP SBS#986 (synthetic). An outline of the steps: as §1
The target of another data set is ZFP SBS#988 (synthetic). An outline of the steps: as §1
The target in the next data set is T11, ZFP SBS#1033 (synthetic).
T11 chain: T3 chain with H23A, Q50D, S51R, D53A, R55T, R56T, K81A, S83A
In outline: as §1

The next data set concerns the target T12, ZFP SBS#1034 (synthetic).
T12 chain: T3 chain with H23A, Q50D, S51R, D53A, R55T, R56K, K81A, S83A
In outline: as §1

Another data set addresses T13, ZFP SBS#1035 (synthetic).
T13 chain: T3 chain with H23A, Q50D, S51R, D53A, R56T, K81A, S83A
In outline:
as §1

For a further data set, the target named is T14, ZFP SBS#1049 (synthetic).
T14 chain: T3 chain with R20Q, S21R, D22A, H23S, R55Q, K81N, S83R, R84E
In outline: as §1

The target in the next data set is ZFP SBS#1050 (synthetic). In outline: as §1
The target in another data set is T15, ZFP SBS#1048 (synthetic).
T15 chain: T3 chain with R20Q, D22G, H23A, A25T, R55Q, K81N, S83R, R84E
In outline: as §1

For the next data set, the target named is ZFP SBS#441 (synthetic). In outline: as §1
The next data set addresses ZFP SBS#453 (synthetic). An outline of the steps: as §1
The target of the next data set is ZFP SBS#1046 (synthetic). In outline:
as §1

A further data set has as its target T16, ZFP SBS#1047 (synthetic).
T16 chain: T3 chain with R20Q, S21R, D22A, A25E, S52G, D53S, R55T, K81H
In outline:
as §1

The next data set deals with ZFP SBS#1045 (synthetic). An outline of the steps: as §1
The target in another data set is T17, ZFP SBS#1052 (synthetic).
T17 chain: T3 chain with Q50E, S51K, S52A, D53N, R55T, K81N, S83T, R84T
An outline of the steps: as §1

The next data set addresses T18, ZFP SBS#1053 (synthetic).
T18 chain: T3 chain with Q50D, S51R, D53N, R55T, K81N, S83T, R84T
In outline: as §1

For the next data set, the target named is T19, ZFP SBS#450 (synthetic).
T19 chain: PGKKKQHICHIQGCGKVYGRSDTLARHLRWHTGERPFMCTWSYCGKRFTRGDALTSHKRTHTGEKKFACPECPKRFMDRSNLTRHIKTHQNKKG
In outline: as §1

The next data set concerns the target T20, ZFP SBS#461 (synthetic).
T20 chain: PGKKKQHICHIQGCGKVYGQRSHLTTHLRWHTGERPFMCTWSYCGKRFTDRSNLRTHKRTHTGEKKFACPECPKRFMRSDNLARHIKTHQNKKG
In outline: as §1

Changes are numbered by the printed parent chain.

ZFP SBS#258 (synthetic), sequence (chain, as listed by the source): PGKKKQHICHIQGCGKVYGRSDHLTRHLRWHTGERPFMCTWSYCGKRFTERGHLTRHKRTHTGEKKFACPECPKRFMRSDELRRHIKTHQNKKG
ZFP SBS#1050 (synthetic), sequence (chain, as listed by the source): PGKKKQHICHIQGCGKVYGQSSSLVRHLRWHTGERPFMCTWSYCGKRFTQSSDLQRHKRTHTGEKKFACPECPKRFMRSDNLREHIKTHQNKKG
ZFP SBS#942, sequence (P08047 other isoform, or with tags, fused parts or gaps): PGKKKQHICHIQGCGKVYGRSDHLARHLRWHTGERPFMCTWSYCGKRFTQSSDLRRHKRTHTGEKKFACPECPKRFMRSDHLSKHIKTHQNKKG
ZFP SBS#988 (synthetic), sequence (chain, as listed by the source): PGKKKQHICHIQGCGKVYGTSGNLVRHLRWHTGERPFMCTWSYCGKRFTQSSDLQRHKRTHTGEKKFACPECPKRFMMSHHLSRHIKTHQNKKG
ZFP SBS#986 (synthetic), sequence (chain, as listed by the source): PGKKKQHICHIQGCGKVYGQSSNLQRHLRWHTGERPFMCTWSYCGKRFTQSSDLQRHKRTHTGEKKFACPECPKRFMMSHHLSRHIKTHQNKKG
ZFP SBS#1038 (synthetic), sequence (chain, as listed by the source): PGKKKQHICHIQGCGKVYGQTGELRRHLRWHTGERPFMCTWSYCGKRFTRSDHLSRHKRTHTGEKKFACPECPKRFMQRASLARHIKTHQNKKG
ZFP SBS#1043 (synthetic), sequence (chain, as listed by the source): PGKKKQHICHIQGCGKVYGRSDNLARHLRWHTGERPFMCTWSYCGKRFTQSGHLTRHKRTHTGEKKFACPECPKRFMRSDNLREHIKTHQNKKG
ZFP SBS#1045 (synthetic), sequence (chain, as listed by the source): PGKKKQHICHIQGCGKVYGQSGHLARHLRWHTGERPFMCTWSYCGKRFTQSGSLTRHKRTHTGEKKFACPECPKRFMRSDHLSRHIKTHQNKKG
ZFP SBS#1037 (synthetic), sequence (chain, as listed by the source): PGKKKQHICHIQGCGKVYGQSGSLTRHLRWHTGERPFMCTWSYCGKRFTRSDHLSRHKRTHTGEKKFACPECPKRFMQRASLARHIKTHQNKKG
ZFP SBS#944, sequence (P08047 other isoform, or with tags, fused parts or gaps): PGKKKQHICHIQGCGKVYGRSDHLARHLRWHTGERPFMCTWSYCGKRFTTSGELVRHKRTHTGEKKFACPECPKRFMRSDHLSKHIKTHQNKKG
ZFP SBS#453 (synthetic), sequence (chain, as listed by the source): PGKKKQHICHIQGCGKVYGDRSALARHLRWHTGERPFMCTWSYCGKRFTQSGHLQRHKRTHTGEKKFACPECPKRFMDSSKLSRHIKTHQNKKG
ZFP SBS#441 (synthetic), sequence (chain, as listed by the source): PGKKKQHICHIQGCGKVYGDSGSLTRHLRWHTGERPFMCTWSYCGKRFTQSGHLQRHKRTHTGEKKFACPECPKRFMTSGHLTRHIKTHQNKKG
ZFP SBS#1032 (synthetic), sequence (chain, as listed by the source): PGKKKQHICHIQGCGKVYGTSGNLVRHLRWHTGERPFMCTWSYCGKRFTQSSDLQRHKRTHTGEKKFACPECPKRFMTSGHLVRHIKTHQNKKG
ZFP SBS#1040, sequence (P08047 other isoform, or with tags, fused parts or gaps): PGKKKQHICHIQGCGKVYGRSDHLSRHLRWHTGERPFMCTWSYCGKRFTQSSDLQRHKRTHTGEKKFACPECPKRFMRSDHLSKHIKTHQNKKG
ZFP SBS#964 (synthetic), sequence (chain, as listed by the source): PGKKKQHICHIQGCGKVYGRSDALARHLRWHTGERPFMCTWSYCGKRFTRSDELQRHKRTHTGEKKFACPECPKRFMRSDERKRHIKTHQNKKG

B1: GTAGGGGCA (dsDNA)
DNA 1: GTAGGGGCA
DNA 2: TGCCCCTAC
Regarding B1, the dissociation constant Kd in the data set with ZFP SBS#1038 turned out to be 0.152 nM; with ZFP SBS#1037 it was 0.05 nM.

B2: TCATAGTAG (dsDNA)
DNA 1: TCATAGTAG
DNA 2: CTACTATGA
For B2, the Kd turned out to be 2.06 nM with ZFP SBS#1041 and 250 nM with ZFP SBS#919.

B3: GGGGCTGGG (dsDNA)
DNA 1: GGGGCTGGG
DNA 2: CCCAGCCCC
As for B3, the Kd was 0.077 nM with ZFP SBS#941; 1.37 nM with ZFP SBS#1039; 3.1 nM in the data set with ZFP SBS#993; 0.05 nM with ZFP SBS#1040; 0.067 nM with ZFP SBS#943; 0.13 nM with ZFP SBS#942. The equilibrium dissociation constant (Kd) with ZFP SBS#944 is 0.027 nM.

B4: GTGGCTTGT (dsDNA)
DNA 1: GTGGCTTGT
DNA 2: ACAAGCCAC
In the data set with ZFP SBS#1026, B4 gave a Kd of 0.076 nM.

B5: GCGGCGGTG (dsDNA)
DNA 1: GCGGCGGTG
DNA 2: CACCGCCGC
Take B5: the Kd came to 0.041 nM with ZFP SBS#964 and 0.054 nM with ZFP SBS#1027.

B6: GCGGGCGGG (dsDNA)
DNA 1: GCGGGCGGG
DNA 2: CCCGCCCGC
B6 displayed a Kd in the data set with ZFP SBS#258 of 15 nM.

B7: CAGGGAGAG (dsDNA)
DNA 1: CAGGGAGAG
DNA 2: CTCTCCCTG
As for B7, the Kd in the data set with ZFP SBS#1044 is 1.07 nM; with ZFP SBS#1043 it was 0.16 nM.

B8: GAGGCTGAG (dsDNA)
DNA 1: GAGGCTGAG
DNA 2: CTCAGCCTC
Regarding B8, in the data set with ZFP SBS#1051, the Kd turned out to be 0.02 nM.

B9: GGTGCTGAT (dsDNA)
DNA 1: GGTGCTGAT
DNA 2: ATCAGCACC
Regarding B9, the Kd with ZFP SBS#1032 is 0.52 nM; in the data set with ZFP SBS#987, 33.5 nM; with ZFP SBS#986, 1.6 nM; in the data set with ZFP SBS#988, 0.15 nM.

B10: GTGTTCGTG (dsDNA)
DNA 1: GTGTTCGTG
DNA 2: CACGAACAC
As to B10, the values for the Kd with ZFP SBS#1033, with ZFP SBS#1034 and with ZFP SBS#1035 were 685 nM, 14.6 nM and 56 nM, respectively.

B11: CAGGCTGTA (dsDNA)
DNA 1: CAGGCTGTA
DNA 2: TACAGCCTG
As for B11, the Kd was 55.6 nM with ZFP SBS#1049, 0.125 nM with ZFP SBS#1050 and 1.39 nM with ZFP SBS#1048.

B12: GGTGGAGTCA (dsDNA)
DNA 1: GGTGGAGTCA
DNA 2: TGACTCCACC
In the case of B12, the Kd was 250 nM with ZFP SBS#441 and 150 nM in the data set with ZFP SBS#453.

B13: GGGGCAGGA (dsDNA)
DNA 1: GGGGCAGGA
DNA 2: TCCTGCCCC
On to B13, for which the Kd came to 0.09 nM in the data set with ZFP SBS#1046, 24.7 nM in the data set with ZFP SBS#1047 and 0.15 nM with ZFP SBS#1045.

B14: TAGGACGGG (dsDNA)
DNA 1: TAGGACGGG
DNA 2: CCCGTCCTA
As for B14, the Kd with ZFP SBS#1052 worked out at 0.28 nM; in the data set with ZFP SBS#1053, 0.025 nM.

B15: GACTTGGTGC (dsDNA)
DNA 1: GACTTGGTGC
DNA 2: GCACCAAGTC
The molecule B15 returned a Kd with ZFP SBS#450 of 130 nM.

B16: GAGTACTGTA (dsDNA)
DNA 1: GAGTACTGTA
DNA 2: TACAGTACTC
B16: in the data set with ZFP SBS#461, the equilibrium dissociation constant (Kd) stood at 120 nM.
